{"source": "paper PMC11413795", "about": "“Milk-derived extracellular vesicles enable gut-to-tumor oral delivery of tumor-activated doxorubicin prodrugs” (Theranostics, 2024)", "key": {"[1]": {"test": "Biodistribution after oral administration, NIRF imaging of GI tract", "set-up": "species or system BALB/c mice", "details": "mouse", "procedure": "All animal experiments were performed following the International Guide for the Care and Use of Laboratory Animals and were approved by the Korea Institute of Science and Technology. 7-week-old BALB/c mice (n = 3 per each time point) were used to monitor the in vivo biodistribution of mEVs. […] Fluorescence signals in the GI tract were monitored by NIRF imaging. Following the assessment of GI tract distribution, all mice were anesthetized using 2.5% isoflurane gas and dissected to extract their major organs (liver, lung, spleen, heart, and kidney) along with the GI tract, and blood for PK analysis. PK analysis was performed by measuring the fluorescence signal of FDX and mEVs present in the blood at each time point (20 min, 40 min, 1 h, 3 h, 6 h, and 24 h)."}, "[2]": {"test": "Systemic toxicity after repeated oral administration", "type": "in vivo, BALB/c mice", "details": "10 mg/kg FDX or equivalent, three-day intervals, n = 5", "procedure": "To evaluate the therapeutic efficacy of FDX@mEVs, all controls and FDX@mEVs (PBS, mEVs, FDX, and FDX@mEVs; an equivalent dose of 10 mg/kg of FDX dispersed in 100 μL of PBS) were orally administered to CT26 tumor-bearing mice when the average tumor size reached approximately 50 - 70 mm^3. The CT26 tumor-bearing mice were modeled in the same manner as the previous method by inoculating 1.5 x 10^6 cells into the left flank of 7-week-old BALB/c mice (BALB/cAnNCrlOri). The six-repeated administration was conducted every three days, and tumor sizes and body weights were measured every two days. All subjects were sacrificed three days after the last administration, and blood, major organs, and tumor tissues were collected for the following analysis.\nSystemic toxicity of FDX@mEVs was assessed by analyzing hematological parameters and histological assay of major organs. To assess liver damage by FDX@mEVs, AST, and ALT levels were analyzed. In addition, BUN and creatinine levels were also evaluated to confirm renal toxicity. Subsequently, all major organs were used for H&E staining to verify the histological damage of FDX@mEVs. H&E staining was performed according to the same protocol used in our previous study. Briefly, all sections were incubated in Hematoxylin solution for 5 min at RT. All incubated tissue sections were washed using tap water for 3 min. […]"}}, "note": "Peptide text beside a SMILES is read from it. * marks the point of attachment. Doxorubicin(3'-N) = COc1cccc2c1C(=O)c1c(O)c3c(c(O)c1C2=O)C[C@@](O)(C(=O)CO)C[C@@H]3O[C@H]1C[C@H](N*)[C@H](O)[C@H](C)O1"}
{"smiles": "COc1cccc2c1C(=O)c1c(O)c3c(c(O)c1C2=O)C[C@@](O)(C(=O)CO)C[C@@H]3O[C@H]1C[C@H](NC(=O)CNC(=O)[C@H](CCCNC(=N)N)NC(=O)[C@H](CCCNC(=N)N)NC(=O)[C@H](Cc2ccccc2)NC(C)=O)[C@H](O)[C@H](C)O1", "note": "[FDX, FRRG-DOX] (Ac-FRRG-{Doxorubicin(3'-N)})", "values": [{"measurement": "in vivo clearance time after oral administration", "setting": "[1]", "result": "≤ 3", "unit": "h"}, {"measurement": "body weight during repeated oral administration compared to PBS group", "setting": "[2]", "result": "no significant changes"}]}
